According to EP4796681A2 (Daiichi Sankyo Co., Ltd., dated 2026):
Blank lines part the entries; values can stand above or below the binder they belong to.

Tests used:
[1] = target: T1, Chymotrypsin (Worthington Biochemical Corp.) (Bos taurus (Bovine), UniProt P00766 1-13; P00766 16-146; P00766 149-245); assay: cell-based or functional assay
[2] = target: T1, Chymotrypsin (Worthington Biochemical …); assay: ELISA, chymotrypsin coated on plate, detection by HRP-conjugated S-Tag antibody

IC50 of chymotrypsin inhibitory activity (Pierce Quantitative Protease Assay Kit) [1]: 815 nM | EC50 [2]: 18.3 nM
B1: α-chymotrypsin-binding peptide No. 2 (SPINK2 mutant) (designed binder)
chain: DPQFGLFSKYRTPNCMRHRRHFCTMVYKPVCGSDMSTYANECTLCMKIREGGHNIKIIRNGPC
notes: Expressed in E. coli Origami B (DE3) as thioredoxin/His fusion, thioredoxin tag cleaved by thrombin; mainly monomer; also called clone 2; not shown: vector-derived N-terminal residues left after thrombin cleavage of the pET 32a (varied) fusion, including the S-tag used

IC50 of chymotrypsin inhibitory activity (Pierce Quantitative Protease Assay Kit) [1]: 374 nM | EC50 [2]: 17.8 nM
B2: α-chymotrypsin-binding peptide No. 6 (SPINK2 mutant) (designed binder)
chain: DPQFGLFSKYRTPNCRRWLLPWCTYKYKPVCGSDMSTYANECTLCMKIREGGHNIKIIRNGPC
notes: Expressed in E. coli Origami B (DE3) as thioredoxin/His fusion, thioredoxin tag cleaved by thrombin; mainly monomer; also called clone 6; not shown: vector-derived N-terminal residues left after thrombin cleavage of the pET 32a (varied) fusion, including the S-tag used
